# Assay results: the nanobody polyreactivity screen of Harvey et al. (2022)
# Assay: yeast display, Sf9 membrane polyspecificity reagent, FACS + sequencing; frameworks hold sequencing errors
# Outline: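 Galactose induction of a Saccharomyces cerevisiae BJ5465 synthetic nanobody display library ran 36–48 hours. The cells were then stained for 1 hour at 4 °C with 10% biotinylated, detergent-solubilized Sf9 membrane reagent, pulled down on streptavidin microbeads and FACS-sorted into low and high (top ~1%) gates on expression and reagent-binding fluorescence. Labels for polyreactivity follow the gate of origin.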
row,Sequence,polyreactivity (PSR sort gate)
1,QVQLVESGGGLVQAGGSLRLSCAASGFTFLQYAMGWYRQAPGKERELVATISSGGSTYYADSVKGRFTISRDNAKNTVYLQMNSLTPEDTAVYYCNAEEHFHTYVLHFRPYYVRHDYWGKGTQVTVSS,low polyreactivity
2,QVQLVESGGGLVQAGGSLRLSCAASGFTFLTYAMGWYRQAPGKERELVAAIDSGDSTKYADSVKGRFTISLDNAKNTVYLQMNSLKPEDTAVYYCNASRRYHVRAPYDYWGQGTQVTVSS,low polyreactivity
3,QVQLVESGGGLVQAGGSLRLSCAASGFTFLYYAMGWYRHAPGKERELVAAITTGSSTNYADSVKGRFTISRDNAKNTVYLQMNSLKPEDTAVYYCAAEYYYRVWYGHYYEYDYWGQGTQVTVSS,high polyreactivity
4,QVQLVESGGGLVQAGGSLRLSCAASGFTFLYYDMGWYRPAPGKERELVAAITSSGTSTYYADSVKGRFTISRDNAKNSVYLQMNSLKPEDTAVYYCAVLYTYAGRHRYGYWGQGTQVTVSS,high polyreactivity
5,QVQLVESGGGLVQAGGSLRLSCAASGFTFNDYAMGRSRQAPGKERELVAAIDWSGGRTYYADSVKGRFTISRDYEKNTVYLQMKSLKPEDTAVYYCAAVLYSRLYWYSLDYWGQGTQVTVSS,low polyreactivity
6,QVQLVESGGGLVQAGGSLRLSCAASGFTFNFYAMGWYRQAPGKERELVASITSSGARTYYADSVKGRFTISRDNAKNTVYLQMNSLKPEDTAVYYCAARVYRYSASRAYDYWGQGTQVTVSS,high polyreactivity
7,QVQLVESGGGLVQAGGSLRLSCAASGFTFNGNAMGWYRQAPGKERELVAAISYSGGSTYYADSVKGRFTISRDNAKNTVYLQMNSLKPVDTAVFYCAADRTAYSVRAFTKDHSGHDYCGQGTQVTVSS,low polyreactivity
8,QVQLVESGGGLVQAGGSLRLSCAASGFTFNKNPMGWYRQAPGKEREMVAAITSSGGSTYYADSVQGRFTISRDNAKNTVYLQMNSLKPEDTAVYYCAAYPQAFMADYEYWGQGTQVTVSS,low polyreactivity
9,QVQLVESGGGLVQAGGSLRLSCAASGFTFNKYAMGWYRQAPGKERELVAAISSSGGSTRYADSVKGRFTISRDNAKNTVYLQMNSLKPEDTADYYCAVYVTSDSGWWLYDYWGQGTQVTVSS,high polyreactivity
10,QVQLVESGGGLVQAGGSLRLSCAASGFTFNKYAMGWYRQAPGTERELVAAISSRGGSPYYADSVKGRFTISRDNAKNTVYLQMNSLKPEDTAVYYCAVYTIGYLAWYQKFDYWGQGTQVTVSS,high polyreactivity
11,QVQLVESGGGLVQAGGSLRLSCAASGFTFNRYDMGWYRQAPGKERELVAAITGGSGSTYYADSVKGRFTISRDNAKNTVYLQMHSLKPEDTAVYDCAARRYRLSTPEFNYWGQGTQVTVSS,high polyreactivity
12,QVQLVESGGGLVQAGGSLRLSCAASGFTFNWYTMGWYRQAPGKERELVAAIRGSGSRTYYADSVKGRFTISRDNAKNTVYLQMNSLKPEDTAVYYCATDYGLYSTWGRYYRYRYDYWGQGTQVTVSS,high polyreactivity
13,QVQLVESGGGLVQAGGSLRLSCAASGFTFNYNAMGWYRQAPGKERELVAAISRSGGRTYYADSVKGRFTISRDNAKNTVYLQMNSLKPEDTAVYYCAADSRTNGYDYWGQGTQVTVSS,high polyreactivity
14,QVQLVESGGGLVQAGGSLRLSCAASGFTFNYNTMGWYRPAPGKERELVARISRSGGRTYYADSVKGRFTISRDNAKNTVYLQMNSLKPEDTAVYYCNTDYYGVRHRYDYWGQGTQVTVSS,high polyreactivity
15,QVQLVESGGGLVQAGGSLRLSCAASGFTFNYYAMGWYRQAPGKEREFVAAISYGGGDTYYADSVKGRFTISRDNAKNTVYLQMNSLKPEDTAVYYCNARFRKRAYRYDYWGQGTLVTVSS,high polyreactivity
16,QVQLVESGGGLVQAGGSLRLSCAASGFTFNYYAMGWYRQATGKERELVAAIDSGGNTYYADSVKGRFTISRDNAKNNVYLLLNSLKPEDTAVYYCDAYSDYQYDYWGQGTQVTVSS,low polyreactivity
17,QVQLVESGGGLVQAGGSLRLSCAASGFTFPANAMGWYRQAPGKERELVATITWSGGNTYYADSVKGRFTISRDNAKNTVYLQMNSLKPEDTAVYYCAKDYDPYHEQQSSEHDDYWGQGTQVTVSS,low polyreactivity
18,QVQLVESGGGLVQAGGSLRLSCAASGFTFPFYAMGWYRQAPGKERELVAAITSRGGSTYYADSVKGRFTISRDNAKNTVYLQMNSLKPEDTAVYYCAADESGADYYYWGQGTQVTVSS,high polyreactivity
19,QVQLVESGGGLVQAGGSLRLSCAASGFTFPFYTMGWYRQAPGKERELVAAITFSGDSTYYADSVKGRFTISRDNAKNTVYLQMNSLKPEDTAVYYCAVASYWGPEYDYWGQGTQVTVSS,low polyreactivity
20,QVQLVESGGGLVQAGGSLRLSCAASGFTFPGYAMGWYRQAPGKERELVAAISYSSGSTYYADSVKGRFTISRDNAKNTVYLQMNSLKPEDTAVYYCAAYFSPVGFQYDYWGQGTQVTVSS,high polyreactivity

row,Sequence,polyreactivity (PSR sort gate)
1,QVQLVESGGGLVQAGGSLRLSCAASGFTFPLYAMGWYRQAPGKERELVAVISRSGGSTYYADSVKGRFTISRDNAKNTVYLQMNSLKPEDTAVYYCAARLVPRSPERGNYDYWGQGTQVTVSS,high polyreactivity
2,QVQLVESGGGLVQAGGSLRLSCAASGFTFPQNAKGWYRQAPGKERELVAAITNGGTTYYADSVKGRFTISRDNAKNTVYLQMNSLKPEDTAVYYCAAYTYRYGSFKYGYWGQGTQVTVSS,low polyreactivity
3,QVQLVESGGGLVQAGGSLRLSCAASGFTFPRYAMGWYRQAPGKERELVAAITVGGGRTYYADSVKGRFTISRDNANNTVYLQMNSLKPEDTAVYYFAADSHASTYDYWGQGTQVTVSS,low polyreactivity
4,QVQLVESGGGLVQAGGSLRLSCAASGFTFPSNAMGWYRQAPGKERELYAAISSTDSTNYADSVKGRFTISRDNAKNTFYLQMNSLKPEDTAVYYCAKRYPRYRYNTRGNDYWGQGSQVTVSS,low polyreactivity
5,QVQLVESGGGLVQAGGSLRLSCAASGFTFPVNAMGWYRQAPGKERELVAAITSGGRTNYADSVKGRFTISRDNAKNTVYLQMNSLKPEDTAVYYCAAKFGYYWNSRTSGYWGQGTQVTVSS,high polyreactivity
6,QVQLVESGGGLVQAGGSLRLSCAASGFTFPVYAMGWYRPAPGIEREFVAASTKSGGGTYYADSVKGRCTLSRDNAKKTVYGQMNSLKPEETAVYYCAKASRRFLTLGSDYWGQGTQVTVSS,high polyreactivity
7,QVQLVESGGGLVQAGGSLRLSCAASGFTFPYNAMGWYRPAPGTARELVAGISYGGGRTYYADSVKGRFTFSRDNAKNTVYLQMNSLKPEDTAVYYCARRPGAWKYVYTGDYWGQGTQVTVSS,high polyreactivity
8,QVQLVESGGGLVQAGGSLRLSCAASGFTFPYNAMGWYRQAPGKERELVAAISRGGGRTYYADSVKGRFTISRDNAKNTVYLQMNSLKPEDTAVYYCAKAPGQDTPYPYGYWGQGTQVTVSS,high polyreactivity
9,QVQLVESGGGLVQAGGSLRLSCAASGFTFPYNAMGWYRQPPGKERELVAAISRGAGRTYYADSVKGRFTISRDNAKNTVYLQMNSLKQEDTAVYYCAKAPGQDTPYPYGYWGQGTQVTVSS,high polyreactivity
10,QVQLVESGGGLVQAGGSLRLSCAASGFTFPYYAMGWYRQAPGKERELVARISSGGSTNYADSVKGRFTISRDNAMNTVYLEMNSLKPEDTAVYYCNKGWYYRPRFYSSSDYWGQGTQVTVSS,high polyreactivity
11,QVQLVESGGGLVQAGGSLRLSCAASGFTFPYYTMGWYRQAPGKERELVAAINRGGGSTYYADSVKGRFTISRDNAKNTVYLHMNSLKPEDTAVYYCACLRCLFPGRFDYWGQSTQVTVSS,high polyreactivity
12,QVQLVESGGGLVQAGGSLRLSCAASGFTFPYYTMGWYRQAPGKERELVAAISKSGGSTYYADSVKGRFTISRDNAKNTVYLEMHSLKPEDTAVYYCNARRGSPAPYDYWGQGTQVTVSS,high polyreactivity
13,QVQLVESGGGLVQAGGSLRLSCAASGFTFQAYAMGWYRQAPGKERELVAAISKSGGSTYYADSVKGRFTISRDNAKNTVYLQMNSLKPEDTAVYYCAARSWERYRAFIYWGQGTQVTVSS,high polyreactivity
14,QVQLVESGGGLVQAGGSLRLSCAASGFTFQFYAMGWSRPAPGKERELVAAITWSGGSTYYADSVKGRFTISRDNAKNTVYLQMNSLKPEDTAVYYCAKDRRSYLSYIYDYWGQGTQVNVSS,high polyreactivity
15,QVQLVESGGGLVQAGGSLRLSCAASGFTFQNNVMGWYRQAPGKERELVAAINSSGRTYYADSVKGRFTISRDNAKNTVYLQMNSLKPEDTAVFYCAASRRYRGVNRPGDYWGQGTQVTVSS,high polyreactivity
16,QVQLVESGGGLVQAGGSLRLSCAASGFTFQNYAMGWYRQAPGKERELVAAIDSRGGRTYYADSVKGRFTISRDNAKNTVYLQMNSLNPEDTAVYYCAGAENKRFGSVGYYYWGQGTQVTVSS,low polyreactivity
17,QVQLVESGGGLVQAGGSLRLSCAASGFTFQRYTMGWYRQAPGKERELVAAITRSGGRTYYADSVKGRFTISRDNAKNTVYLQMNSLKPEDTAVYYCAVDYRTRGDYWGQGTQVTVSS,high polyreactivity
18,QVQLVESGGGLVQAGGSLRLSCAASGFTFQWYGMGWYRQAPGKERELVAAITWSGGRTNYADSVKGRFTISRDNAKNTVYLQMNSLKPEDTAVYYCNKVFPRRGGDDNYWGQGTQVTVSS,high polyreactivity
19,QVQLVESGGGLVQAGGSLRLSCAASGFTFQYSAMGWSRQAPGKERDVVAAIRSNGGSTYYADSVKGRFTISRDNAKNTVYLQMNSLKPEDTAVYYSAARAYKTYDWGQGTQVTVSS,high polyreactivity
20,QVQLVESGGGLVQAGGSLRLSCAASGFTFQYYAKGWYRQAPGKERELVAAISSSGGSTFYADSVKGRFTSSRDNAKNTVYLQMNSLKPEDTAVYYCATYTSPGYYYWGQGTQVTVSS,high polyreactivity
